Test results reported in publication PMC11484861 (Nature Communications, 2024).

Target: GFP-PDPK1 (human (cloned from HEK293T cells)) (UniProt O15530)
Test: MST

Sequence of GFP-PDPK1 (human (cloned from HEK293T cells)) (O15530 whole entry): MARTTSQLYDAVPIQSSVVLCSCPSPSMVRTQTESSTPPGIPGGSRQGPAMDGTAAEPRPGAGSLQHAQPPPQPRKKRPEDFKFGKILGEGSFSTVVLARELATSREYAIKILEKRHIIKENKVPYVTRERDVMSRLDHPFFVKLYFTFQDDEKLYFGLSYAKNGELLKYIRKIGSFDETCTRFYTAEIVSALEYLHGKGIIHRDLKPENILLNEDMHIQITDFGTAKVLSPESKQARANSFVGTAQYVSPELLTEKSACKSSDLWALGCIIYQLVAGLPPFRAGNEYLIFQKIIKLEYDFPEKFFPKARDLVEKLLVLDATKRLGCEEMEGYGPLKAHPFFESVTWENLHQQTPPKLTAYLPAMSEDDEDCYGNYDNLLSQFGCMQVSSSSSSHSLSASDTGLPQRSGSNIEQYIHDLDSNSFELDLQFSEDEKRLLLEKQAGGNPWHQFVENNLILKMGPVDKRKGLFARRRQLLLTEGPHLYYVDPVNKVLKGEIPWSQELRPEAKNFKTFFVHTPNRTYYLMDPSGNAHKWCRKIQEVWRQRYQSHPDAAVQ

For “unlabeled MΔβ3-5 (MST ligand) (from UniProt P0DTC5 1-222) (domain or fragment)”, the Kd was 37.8 µM.
